The record followed here is publication PMC2120123.

What all share (assay): radioligand binding
Test [1] has as its target CD44(GP85)Δ320, purified from transfected COS cells (mouse).
The target in test [2] is CD44(GP85)Δ355, purified from transfected COS cells (mouse).
In test [3] the target is CD45Δ826/CD44(Reg.I) fusion protein (mouse) (UniProt P06800).

Turning to “Erythrocyte ankyrin (from UniProt P16157 1-1881) (natural protein)”, the Kd was found to be 2.6 nM in test [1] and 1 nM in test [2]. In addition, in test [3], the Ankyrin binding (cpm) was found to be 1160 cpm.

A word on the Kd: it is the equilibrium constant for the complex coming apart. A lower Kd goes with higher affinity.
